Results on three molecules are retold here after PMC6068138, “Identification of a 57S translation complex containing closed-loop factors and the 60S ribosome subunit” (Scientific Reports, 2018).

Holding throughout (conditions): partners not purified
The target in test [1] is T1, eIF4E-Flag (mRNA cap binding protein) (Saccharomyces cerevisiae, UniProt P07260 1-213).
T1 construct: bait of the one-step Flag pull down; also called eIF4-Flag; source: S. cerevisiae, expressed from plasmid YC801 (eIF4E-Flag URA3), in cell extract
T1 sequence (looked up): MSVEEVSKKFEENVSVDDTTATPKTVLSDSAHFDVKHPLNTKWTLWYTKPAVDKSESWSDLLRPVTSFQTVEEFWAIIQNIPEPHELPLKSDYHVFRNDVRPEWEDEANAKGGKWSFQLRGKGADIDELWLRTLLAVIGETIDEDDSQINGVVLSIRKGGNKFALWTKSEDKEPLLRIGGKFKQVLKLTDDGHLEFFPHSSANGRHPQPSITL
Put plainly: co-IP + AUC; one-step Flag pull down of eIF4E-Flag from yeast cell extracts (cycloheximide added before lysis); Flag eluate analysed by AU-FDS for the GFP tagged protein, 20 °C, 15,000 rpm; cells on glucose or glucose depleted 10 min.

The target in test [2] is T1, eIF4E-Flag (mRNA cap binding protein). Put plainly: co-IP + AUC; stoichiometric analysis: eIF4E-Flag purified material split and run at the same time by AU-FDS (GFP protein) and AU-A230 (total material); standards STM1-GFP and RPS4B-GFP; values relative to 100 mRNA bound by ribosomes; cells on glucose.
Test [3] has as its target T2, Flag-PAB1 (poly(A)-binding protein) (Saccharomyces cerevisiae, UniProt P04147 1-577).
T2 construct: bait of the one-step Flag pull down; also called PAB1-Flag; source: S. cerevisiae, expressed from plasmid YC776 (Flag-PAB1 URA3), in cell extract
T2 sequence (looked up): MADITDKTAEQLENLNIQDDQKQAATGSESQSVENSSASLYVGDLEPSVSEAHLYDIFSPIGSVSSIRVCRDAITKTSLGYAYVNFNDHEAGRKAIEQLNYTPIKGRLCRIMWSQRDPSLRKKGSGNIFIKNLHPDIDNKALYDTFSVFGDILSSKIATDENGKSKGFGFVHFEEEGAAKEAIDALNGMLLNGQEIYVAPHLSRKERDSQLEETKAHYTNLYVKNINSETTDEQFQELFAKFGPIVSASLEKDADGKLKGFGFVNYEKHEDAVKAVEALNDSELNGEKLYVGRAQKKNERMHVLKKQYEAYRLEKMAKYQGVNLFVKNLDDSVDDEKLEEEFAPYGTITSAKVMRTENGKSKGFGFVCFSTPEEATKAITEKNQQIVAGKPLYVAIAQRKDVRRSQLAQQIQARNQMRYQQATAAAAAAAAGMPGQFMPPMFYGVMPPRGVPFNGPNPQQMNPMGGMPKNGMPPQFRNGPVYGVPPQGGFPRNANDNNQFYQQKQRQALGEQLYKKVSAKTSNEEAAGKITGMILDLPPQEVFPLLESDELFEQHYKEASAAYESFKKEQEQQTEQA
Put plainly: co-IP + AUC; stoichiometric analysis: Flag-PAB1 purified material split and run at the same time by AU-FDS (GFP protein) and AU-A230 (total material); standards STM1-GFP and RPS4B-GFP; values relative to 100 mRNA bound by ribosomes; cells on glucose, 30 °C to 46 °C 1 min, or glucose depleted 10 min and added back 1 min.

The target of test [4] is T2, Flag-PAB1 (poly(A)-binding protein). Described as above. The source holds these as a separate data set.

B1: RPL6B-GFP (natural protein, Saccharomyces cerevisiae, UniProt P05739 1-176, looked up)
chain: MTAQQAPKWYPSEDVAAPKKTRKAVRPQKLRASLVPGTVLILLAGRFRGKRVVYLKHLEDNTLLVTGPFKVNGVPLRRVNARYVIATSTKVSVEGVNVEKFNVEYFAKEKLTKKEKKEANLFPEQQTKEIKTERVEDQKVVDKALLAEIKKTPLLKQYLSASFSLKNGDKPHLLKF
notes: large ribosomal subunit protein RPL6B, Saccharomyces cerevisiae; part of the 60S ribosomal subunit in the extract; source: S. cerevisiae strain carrying the GFP fusion, in cell extract
For the molecule B1, the “fold change of abundance in the 57S complex, glucose depleted against glucose” value in test [1] amounted to 1.8 fold.

B2: eIF4G1, GFP tagged (natural protein, Saccharomyces cerevisiae, UniProt P39935 1-952, looked up)
chain: MTDETAHPTQSASKQESAALKQTGDDQQESQQQRGYTNYNNGSNYTQKKPYNSNRPHQQRGGKFGPNRYNNRGNYNGGGSFRGGHMGANSSNVPWTGYYNNYPVYYQPQQMAAAGSAPANPIPVEEKSPVPTKIEITTKSGEHLDLKEQHKAKLQSQERSTVSPQPESKLKETSDSTSTSTPTPTPSTNDSKASSEENISEAEKTRRNFIEQVKLRKAALEKKRKEQLEGSSGNNNIPMKTTPENVEEKGSDKPEVTEKTKPAEEKSAEPEVKQETPAEEGEQGEKGQIKEESTPKVLTFAERLKLKKQQKEREEKTEGKENKEVPVQEETKSAIESAPVPPSEQVKEETEVAETEQSNIDESATTPAIPTKSDEAEAEVEAEAGDAGTKIGLEAEIETTTDETDDGTNTVSHILNVLKDATPIEDVFSFNYPEGIEGPDIKYKKEHVKYTYGPTFLLQFKDKLNVKADAEWVQSTASKIVIPPGMGRGNRSRDSGRFGNNSSRGHDFRNTSVRNMDDRANSRTSSKRRSKRMNDDRRSNRSYTSRRDRERGSYRNEEKREDDKPKEEVAPLVPSANRWVPKFKSKKTEKKLAPDGKTELLDKDEVERKMKSLLNKLTLEMFDAISSEILAIANISVWETNGETLKAVIEQIFLKACDEPHWSSMYAQLCGKVVKELNPDITDETNEGKTGPKLVLHYLVARCHAEFDKGWTDKLPTNEDGTPLEPEMMSEEYYAAASAKRRGLGLVRFIGFLYRLNLLTGKMMFECFRRLMKDLTDSPSEETLESVVELLNTVGEQFETDSFRTGQATLEGSQLLDSLFGILDNIIQTAKISSRIKFKLIDIKELRHDKNWNSDKKDNGPKTIQQIHEEEERQRQLKNNSRSNSRRTNNSSNRHSFRRDAPPASKDSFITTRTYSQRNSQRAPPPKEEPAAPTSTATNMFSALMGESDDEE
notes: eIF4G1, Saccharomyces cerevisiae; source: S. cerevisiae strain carrying the GFP fusion, in cell extract
For the molecule B2, in test [2], the “abundance in the eIF4E-Flag 39S complex (Glc+)” value is 88 ± 12 relative to 100 mRNA and the “abundance in the eIF4E-Flag 57S complex (Glc+)” value is 71 ± 8.6 relative to 100 mRNA. For the same molecule, in test [3], the “abundance in the Flag-PAB1 39S complex (30 °C to 46 °C 1 min)” value is 7.9 ± 1.7 relative to 100 mRNA, the “abundance in the Flag-PAB1 39S complex (Glu + − 10 min + 1 min)” value was 8.8 ± 1.6 relative to 100 mRNA, the “abundance in the Flag-PAB1 57S complex (30 °C to 46 °C 1 min)” value is 3 ± 2.2 relative to 100 mRNA and the “abundance in the Flag-PAB1 57S complex (Glu + − 10 min +1 min)” value was 5.3 ± 1.1 relative to 100 mRNA. Moreover, in test [4], the “abundance in the Flag-PAB1 39S complex (Glc+)” value is 13 ± 2.3 relative to 100 mRNA and the “abundance in the Flag-PAB1 57S complex (Glc+)” value was 6.4 ± 0.91 relative to 100 mRNA.

B3: PAB1, GFP tagged (natural protein, Saccharomyces cerevisiae, UniProt P04147 1-577, looked up)
chain: MADITDKTAEQLENLNIQDDQKQAATGSESQSVENSSASLYVGDLEPSVSEAHLYDIFSPIGSVSSIRVCRDAITKTSLGYAYVNFNDHEAGRKAIEQLNYTPIKGRLCRIMWSQRDPSLRKKGSGNIFIKNLHPDIDNKALYDTFSVFGDILSSKIATDENGKSKGFGFVHFEEEGAAKEAIDALNGMLLNGQEIYVAPHLSRKERDSQLEETKAHYTNLYVKNINSETTDEQFQELFAKFGPIVSASLEKDADGKLKGFGFVNYEKHEDAVKAVEALNDSELNGEKLYVGRAQKKNERMHVLKKQYEAYRLEKMAKYQGVNLFVKNLDDSVDDEKLEEEFAPYGTITSAKVMRTENGKSKGFGFVCFSTPEEATKAITEKNQQIVAGKPLYVAIAQRKDVRRSQLAQQIQARNQMRYQQATAAAAAAAAGMPGQFMPPMFYGVMPPRGVPFNGPNPQQMNPMGGMPKNGMPPQFRNGPVYGVPPQGGFPRNANDNNQFYQQKQRQALGEQLYKKVSAKTSNEEAAGKITGMILDLPPQEVFPLLESDELFEQHYKEASAAYESFKKEQEQQTEQA
notes: source: S. cerevisiae strain carrying the GFP fusion, in cell extract
As to B3, in test [2], the “abundance in the eIF4E-Flag 39S complex (Glc+)” value was 42 ± 9.1 relative to 100 mRNA and the “abundance in the eIF4E-Flag 57S complex (Glc+)” value was 26 ± 3.7 relative to 100 mRNA.
